Test results taken from the supplement of paper PMC9170038.

test system: K4 kissing-loop RNA reporter; experiment: apparent KD of K4 kissing-loop reporter; higher = weaker reporter binding; conditions: Eterna round: R107; input ligand: none
Experimental: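 RNA-MaP round R107: designed RNA switches with theophylline, tryptophan, arginine or FMN aptamers are transcribed on-chip within common flanks. They are titrated with a labelled K4 kissing-loop RNA reporter in RNA-MaP buffer (100 mM Tris pH 7.5, 80 mM KCl, 4 mM MgCl2), without ligand or with the indicated ligand. Median apparent KD per design.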
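Also: bound reporter read as fluorescence of individual clusters on recovered sequencing chips by microscopy, with normalized cluster intensities fitted with a binding model.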

Sequence | apparent KD of K4 kissing-loop reporter [nM]
GUUACGCAUGGAAGGAGCGCUCUCCGGCUUAUUAACACAGUGAUGUUGUGAUUUUGCCGAAAGCAGGUAGGUCGCCAUGUGUAAC [Ex Arginine B K4 11] | 451
AAAUAAAUCACGGCCGCCACUGCUAGAGUGAUGUUCUAUUAAUAAUUUCUAAAUUAUAUAAUACUCAGGACCGGGUGAUUUUUAA [JR_SSTryptoB_Sub020] | 355
UGUCAUUGGUCGGCCGCCACUUCAUAUAGAGUGAUGUUCUGAAAGACGGAUCGAAAGAUCUGUCGAAGGACCGGGACCGAUGACU [FiskerMod 12 - Jieux - Same State - Tryptophan B] | 1640
UUAUUAUAUUGUAAUGAUAUAGAAACCGAAGGAGCGACAUAAAAGUCAGGUAGGUCGCGGUGUACUCAGUGAUGUUGAGAGUAUU [JR_SSArginiA_Sub013] | 172
AAUAAGGUCGCCGAUACCAGCGCAGGCAGAGCAAAGCUCUGCCUGGUAGUGAUGUUACCGCGCCCUUGGCAGCGGUGGCACGACC [Omei KL Theo B SS C v5] | 71.3
AUUAAUUUCAGAGGAUAUGCUUAAUUGAUUAAAUAUAAUCUAUUAUGCAGUGAUGUUGCAUUUUUUGCAGAAGGCUGAUUUAUAA [JR_SSFMNB_Sub017] | 506
GCCUGGGCCCGAAGGAGCGCCGUGACAGGUUACUGCAUUGAGCAGUGAUGUUGCUCAAUCUGGCAGGUAGGUCGCGGGCCCAGGC | 102
UGGAGUUGACGAAAAGUCAACUCCUGAGAUACCAGUGACGAAGGUCACCCUUGGCAGCUCACUGCUAGUGAUGUUGGAAGAUAAA [whbob_SS_Theo_A_w48] | 913
CACGAUGAAUUCUCUAGGAGUGAUGUUUUUCGAGGACCGGUACGGCCGCCACUCGGACCAGGAGCGUGGUAGCGGCGAAAAGACU [zpmullin] | 545
UAACUGCAGUGAUGUUGCAGAUGUCCUGACUAGGAUAUCAGGAAACUGAGAAGGAGUGCCUUCUAAACAUCACAGAAGGUGGACA [KL-SSFMN-A28] | 415
AGUGAACGAGCGGCCGCCACUAAAUGAGUGAUGUUCGUGAGUAGUGCUGUUCUCAUGAUUGUUUUUAGGACCGGGUUCGAUGUUG [edcclmullin] | 762
AGUUUAGAGUGACUCGAUAAGAGUCACAAACGAGGACCGGUACGGCCGCCACUCGAAAUAACGAGAGUGAUGUUCUCGCUGGGUA [FiskerMod 4 - Jieux - Same State Tryptophan A] | 342
AGUCCUAUGACGGCCGCCACUCCGGUUAUGAUUUGCCAAGUGAUGUUUGGGUAUCAGGCGAGGCGGAGGACCGGGUCGACCUGCC [theeternabot_exclusion_KL_Trp_B_18] | 151
UGGGAUGUUAAAGGAUAUAGAAAGUGAUAUUAGAAAGUGAGUGAUGUUGAUGUAAGUGAUGAUAUGUUAGAAGGUUAACAAAACG [abcd] | 499
AGACUACCACACUGUCAAUAGACAGUGAACUCGGAUAUGCUGAUAAGCAGAAGGAGUGAUGUUCCGAGGUAGUCAAUAAAAUAAU [FmnAX 13 C32+G66] | 568
AGACCCUGGUAGGAUACCAGCGGCAUGCAGUGCGAGAGAGCGUAGUGAUGUUACGAGACCCGCCCUUGGCAGCCUGGGAAUGUGU [theeternabot_exclusion_KL_Theo_B_50] | 79.8

same assay, conditions: Eterna round: R107; input ligand: theophylline 20 uM

Sequence | apparent KD of K4 kissing-loop reporter [nM]
GAUUCUAGCGAAAGUGAUGUUUUCGAGGAUACCAGUGCCACUUGACACCCUUGGCAGCCUACCCGUCAUCACAAGUGGCGUUAAA [theeternabot_exclusion_KL_Theo_A_28] | 138
AGGAUCCGUCGACAAAAGUCGACAUAAUCCGAGGAUAUGACGAAAGUCAGAAGGUGGACAUAAGUCCAGUGAUGUUGGAGGAUCC [FmnA 17 #SwitchBubble #K4Late] | 420
GCAGUGAUGUUGCGGAUGUACAGUGGCGUGCGAGGACCGGUACGGCCGCCACUCGUACAGAGCAAGCUAAUACAUCGAUAGGUGA [whbob_SS_Tryp_A_m4] | 382
AAGCAGUCCCUUGUUGUCAUCGAAGAUGAACGAGGACCGGUACGGCCGCCACUCGGAGUGAUGUUCCGAAGGCUGCAAAAUAAAA [MatMod 20 - Jieux - Exclusion - Tryptophan A] | 115
CCAUCGCUAUUCGAUACCAGUCAGGAGGUCUUUGGCCUCCUAAUGGAGUGAUGUUCCUUAGACCCUUGGCAGCGAAUAGUGAUGG [Theophylline B K4 14] | 448
AUGGUAUUGCGAGGAUAUCCUUCCCACGUCGAAGUACCGUGCUUGAUGGAGUGAUGUUCGAUCAGAGGAGAAGGCGCGGUGUUAU [Same State FMN B GF22] | 645
UAAUAUCCGUCGGCCGCCACUCACCAGUGAUGUUGGAGGAGUGAUGUUCCACGAGUGAUGUUCGAGAGGACCGGGACGGACGAUG [6th] | 108
UGAUACCAGACGGCCGCCACUCCUAGUGAUGUUAGGAACCUAAAAUAGCAUGUCAAAGACAUGCGGAGGACCGGGUCUGGUAUCU [TrypBX 23 #SwitchBubble #Palindromic #StaticStem] | 90.3
UGAUUGGCGAAAGUAGUGAUGUUACGAAUAUAGGAUAUUAGAGGAAUAAGAAGGAUAAAUGAGAAAUAGGUAAAUUGUUGGUUGG [FMN same state] | 116
AGUGAUGUGGGAAGGAGCGGUAUAAGAAUUCAGUGAUGUUGAAGUGUUGCUGUAAUAAAGAGCCAGGUAGGUCGCCUAGAUGUUA [KL-XARG B30] | 1120
GAUUAAUAAGAGGAUACCAGUACUAAUAAAGUACAUUAAUAGUAGAGUGAUGUUCUAAAGUACCCUUGGCAGCUUAGAGUAAGUU [#08 K4 Theophylline B Exclusion] | 226
ACGCUGGAUGAAUAACAUCUAGCGAAAAUUCGAGGACCGGUACGGCCGCCACUCGAGCUAACUGCGAGUGAUGUUCGAUAAUAAA [Mat - Mod of OpenEnded 3 - D6] | 497
AGGAGUGAUGUUCCUACAUACACGGUCCGACGAGGACCGGUACGGCCGCCACUCGCGUCCCAGUGAUGUUGGGAUUUGGCGUACA [Exclusion Tryptophan A Gf 16] | 141
GAUUUAGAGGCGGCCGCCACUAGUGAUGUUAGUGAUGUUUGAUAGGGAAUAUAUCUGCGAGUAGAUAGGACCGGGCCAGAUGGAG [eccvbmullin] | 168
AGGCACGAGCAAGGAUAUUGAGUAGAGUGAUGUUCUGCCUGGGUUGGCUCGGAAGAGCCUUCUCAGCGAGAAGGUGCUCGUGCCU [#2 Same State - FMN A Attempt #24 (HarryS)] | 542
GCCCGGUGAAUCCGCCAAGAUAGACACCGUCGAGGACCGGUACGGCCGCCACUCGAGUACGAGUGAUGUUCGUACGCGGUGUCGA [Onedzate] | 431
GUUACGCAUGGAAGGAGCGCUCUCCGGCUUAUUAACACAGUGAUGUUGUGAUUUUGCCGAAAGCAGGUAGGUCGCCAUGUGUAAC [Ex Arginine B K4 11] | 447
AAAUAAAUCACGGCCGCCACUGCUAGAGUGAUGUUCUAUUAAUAAUUUCUAAAUUAUAUAAUACUCAGGACCGGGUGAUUUUUAA [JR_SSTryptoB_Sub020] | 426
UGUCAUUGGUCGGCCGCCACUUCAUAUAGAGUGAUGUUCUGAAAGACGGAUCGAAAGAUCUGUCGAAGGACCGGGACCGAUGACU [FiskerMod 12 - Jieux - Same State - Tryptophan B] | 1100
UUAUUAUAUUGUAAUGAUAUAGAAACCGAAGGAGCGACAUAAAAGUCAGGUAGGUCGCGGUGUACUCAGUGAUGUUGAGAGUAUU [JR_SSArginiA_Sub013] | 271
AAUAAGGUCGCCGAUACCAGCGCAGGCAGAGCAAAGCUCUGCCUGGUAGUGAUGUUACCGCGCCCUUGGCAGCGGUGGCACGACC [Omei KL Theo B SS C v5] | 71.7
AUUAAUUUCAGAGGAUAUGCUUAAUUGAUUAAAUAUAAUCUAUUAUGCAGUGAUGUUGCAUUUUUUGCAGAAGGCUGAUUUAUAA [JR_SSFMNB_Sub017] | 485
GCCUGGGCCCGAAGGAGCGCCGUGACAGGUUACUGCAUUGAGCAGUGAUGUUGCUCAAUCUGGCAGGUAGGUCGCGGGCCCAGGC | 108
UGGAGUUGACGAAAAGUCAACUCCUGAGAUACCAGUGACGAAGGUCACCCUUGGCAGCUCACUGCUAGUGAUGUUGGAAGAUAAA [whbob_SS_Theo_A_w48] | 2350
